# Reference: patent US20110243926A1 (published 2011)
# T1: soluble P-selectin (UniProt P16109 42-771, limits assumed)
# T1 sequence (looked up): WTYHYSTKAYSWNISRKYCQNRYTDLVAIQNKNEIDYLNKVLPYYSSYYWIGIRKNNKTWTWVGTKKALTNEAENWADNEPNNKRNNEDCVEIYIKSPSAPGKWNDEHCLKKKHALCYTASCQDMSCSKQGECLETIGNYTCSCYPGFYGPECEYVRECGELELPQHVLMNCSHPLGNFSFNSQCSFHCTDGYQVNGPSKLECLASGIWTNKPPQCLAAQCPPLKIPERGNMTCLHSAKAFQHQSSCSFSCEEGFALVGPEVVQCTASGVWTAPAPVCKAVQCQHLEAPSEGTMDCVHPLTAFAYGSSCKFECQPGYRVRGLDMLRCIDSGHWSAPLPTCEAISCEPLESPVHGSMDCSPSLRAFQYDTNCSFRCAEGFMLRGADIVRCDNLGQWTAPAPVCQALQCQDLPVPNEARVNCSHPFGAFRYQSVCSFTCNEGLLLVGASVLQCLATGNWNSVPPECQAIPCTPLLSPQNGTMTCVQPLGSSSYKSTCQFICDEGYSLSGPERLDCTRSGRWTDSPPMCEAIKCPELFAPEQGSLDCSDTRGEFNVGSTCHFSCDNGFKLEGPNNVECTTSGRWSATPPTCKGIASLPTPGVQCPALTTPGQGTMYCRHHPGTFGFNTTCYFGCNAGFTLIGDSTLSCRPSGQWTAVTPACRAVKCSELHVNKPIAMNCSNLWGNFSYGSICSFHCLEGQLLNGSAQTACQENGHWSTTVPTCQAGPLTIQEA
# T2: soluble E-selectin (control protein) (UniProt P16581 22-556, limits assumed)
# T2 sequence (looked up): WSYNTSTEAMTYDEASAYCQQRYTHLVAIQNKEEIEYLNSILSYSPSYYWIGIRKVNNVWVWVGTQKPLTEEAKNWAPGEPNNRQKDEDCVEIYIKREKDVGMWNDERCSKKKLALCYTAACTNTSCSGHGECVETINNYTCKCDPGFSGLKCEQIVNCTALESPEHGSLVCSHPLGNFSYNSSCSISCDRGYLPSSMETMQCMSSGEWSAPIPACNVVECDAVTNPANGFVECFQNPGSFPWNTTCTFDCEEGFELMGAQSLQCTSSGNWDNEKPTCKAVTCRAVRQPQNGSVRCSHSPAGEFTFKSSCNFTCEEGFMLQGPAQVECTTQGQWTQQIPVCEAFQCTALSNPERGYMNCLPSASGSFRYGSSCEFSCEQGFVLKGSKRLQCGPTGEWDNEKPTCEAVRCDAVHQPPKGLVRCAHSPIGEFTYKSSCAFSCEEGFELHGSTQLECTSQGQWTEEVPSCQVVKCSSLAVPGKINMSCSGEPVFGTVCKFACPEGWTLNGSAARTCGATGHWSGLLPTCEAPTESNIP
# Assays:
# [1] = target: T1, soluble P-selectin; assay: SPR (Biacore 3000, 25 C), soluble P-selectin coupled to CM-5 chip, antibody as analyte, bivalent analyte model
# Protocol: (§1) All experiments were performed on a Biacore 3000, at 25° C., using 20 mM MOPS, pH 7.5, 150 mM NaCl, 1.5 mM CaCl₂ and 0.005% Tween-20 as running buffer. Low densities of soluble P-selectin or soluble E-selectin (control protein) were covalently coupled on two different surfaces of a CM-5 chip according to the manufacturer's instructions. The coating density was selected with the aim of achieving a maximum binding response of 100-200 RUs.
# (§2) Solutions containing G1aggr and the G1 mouse parental monoclonal antibody were diluted and injected onto the CM-5 chip at a flow rate of 30 μl/min for 4 minutes, followed by 3 min to allow for dissociation, at which time the bound antibody was eluted with a 10 μl injection of 10 mM Acetate pH 4.5, 100 mM NaCl at a flow rate of 10 μl/min. A series of concentrations of both antibodies were injected over the soluble P-selectin and the soluble E-selectin surfaces until saturating binding was observed.
# The data were analyzed using the Biaevaluation software v 4.1. Sensorgrams from the different cycles were overlaid and the data for all curves of one antibody were simultaneously fitted to a Bivalent analyte model (see FIG. 5). The equilibrium affinity was calculated from the on-rates and off-rates obtained from this analysis.
# [2] = target: T2, soluble E-selectin (control protein); assay: SPR (Biacore 3000), soluble E-selectin coupled to CM-5 chip, antibody injected
# Protocol: as §1, §2
# There was no binding observed for either antibody to E-selectin.
Kd [1],binding result [2],Binder
24.4 nM,no binding,"G1 mouse parental monoclonal antibody (antibody, V domains shown, Mouse monoclonal antibody from a hybridoma; also called murine mAb G1; parental G1 murine antibody) VH: QVQLQQSGPELVKPGALVKISCKASGYTFTSYDINWVKQRPGQGLEWIGWIYPGDGSIKYNEKFKGKATLTVDKSSSTAYMQVSSLTSENSAVYFCARRGEYGNYEGAMDYWGQGTTVTVSS VL: DIVLTQDPASLAVSLGQRATISCKASQSVDYDGHSYMNWYQQKPGQPPKLLIYAASNLESGIPARFSGSGSGTDFTLNIHPVEEEDAATYYCQQSDENPLTFGTGTKLELK"
31.1 nM,no binding,"humanized G1 antibody design labeled ""aggressive"" (G1aggr) (antibody, V domains shown, also called humanized G1aggr; humanized antibody G1aggr) VH: QVQLVQSGAEVKKPGASVKVSCKVSGYTFTSYDINWVRQAPGKGLEWMGWIYPGDGSIKYNEKFKGRVTMTVDKSTDTAYMELSSLRSEDTAVYYCARRGEYGNYEGAMDYWGQGTLVTVSS VL: DIQMTQSPSSLSASVGDRVTITCKASQSVDYDGHSYMNWYQQKPGKAPKLLIYAASNLESGVPSRFSGSGSGTDFTLTISSLQPEDFATYYCQQSDENPLTFGGGTKVEIK"
